Measured values as given in article PMC3470543, “Effects of the Missense Mutations in Canine BRCA2 on BRC Repeat 3 Functions and Comparative Analyses between Canine and Human BRC Repeat 3” (PLoS ONE, 2012).
Positions count from the first letter of the chain named. Names may count otherwise.

Target: T1, recombinant full-length human RAD51 (Bio Academia) (human, UniProt Q06609 1-339)
T1 construct: human RAD51 recombinase, recombinant full-length protein; also called hRAD51; source: bought: Bio Academia
T1 sequence (looked up): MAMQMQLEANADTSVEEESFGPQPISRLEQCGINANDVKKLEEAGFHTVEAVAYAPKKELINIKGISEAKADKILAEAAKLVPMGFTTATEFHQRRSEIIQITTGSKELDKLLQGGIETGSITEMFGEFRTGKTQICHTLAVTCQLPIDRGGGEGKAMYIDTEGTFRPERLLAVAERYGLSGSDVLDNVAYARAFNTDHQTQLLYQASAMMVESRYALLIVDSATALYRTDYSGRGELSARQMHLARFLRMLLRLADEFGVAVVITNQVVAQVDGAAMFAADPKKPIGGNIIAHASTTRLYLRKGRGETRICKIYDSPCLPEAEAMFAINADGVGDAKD
Assay: pull-down; 300 nM GST-fused peptides with 53.6 nM hRAD51 in 50 mM Tris pH 8.0, 150 mM NaCl, 1 mM EDTA, 1 mM DTT, 4°C, 1 h; captured on glutathione sepharose 4B; western blot with anti-RAD51
Details: both partners purified

B1: GST-fused wild-type canine BRC3 (cBRC3) (aa 1410-1482) peptide (domain or fragment, UniProt Q8MKI9 1410-1482, looked up)
chain: GQNIKDFDTFYLSFQTASRKNIRVSKESLNKARSLLNQKWTEEELNNFSDSLNSELLPGIDIKKTDISNHEVI
notes: BRC repeat 3 region of canine BRCA2, aa 1410-1482; also called GST-cBRC3; wild-type cBRC3; source: Rosetta II cells (pGEX6p-1), purified (glutathione sepharose 4B)
binding result: binds

B2: GST-fused K1435R mutant canine BRC3 (aa 1410-1482) peptide (domain or fragment, UniProt Q8MKI9 1410-1482, looked up)
chain: B1 chain with K26R
notes: BRC repeat 3 region of canine BRCA2, aa 1410-1482, with the mammary tumor-derived mutation K1435R; Mutation reported from canine mammary tumor samples; also called K1435R mutant cBRC3; GST-cBRC3 with the K1435R mutation; source: Rosetta II cells (pGEX6p-1), purified (glutathione sepharose 4B)
binding result: binds
